This note sets out measurements from the DeepSol protein solubility set.

A short description of the series: soluble on expression in E. coli; label from the status in PepcDB or PDB records.
Regarding “MIPVFNITSNRGRLLQQISVGDIWGVGRQWANKLISRGIHTAYDLAMTNPHLLKKCFNAVLMRTAMELQGIACGGLEVLEHHHHHH”, the “soluble on expression in E. coli” value was “not soluble”. With “MTYDYVIVGGGIVGVSTGWQLKRRYPEKSVLLIEKEAGFSRHQTGHNSGVIHAGVYYAPGSLKADFCKRGVERTLAFCAQHNIPVENCGKLLVATNEQELERMHALYDRCLQNQIDVEKLDAAQLKLAEPNIRGLGAILVKATSIVNYRLVTEKMAEAFMQLGGDVKIGTEVVGLEETPSSITLTCQQKNQRVSYQAKFLVTCSGLMADRLTKMLGLPTDFQIIPYRGEYYRLAPKHNQVVRHLIYPIPDPELPFLGVHLTRMIDGCVTVGPN” the entry was “not soluble”. As for “MGSDKIHHHHHHALSSIEKIQGKDRYETAAKIAQKQTYENVVLVNTDNTLADGLSASGLAGTVKAPILLSQRNSIPSDTEKMLKDVKKVYIIGTEDSIGKSVENELKQKGIEVKRIGGNDRIETSYLIAKEIASIKPIDKVFITNGYTGEADAMSASSVASRDGAPIILTNGKNVPFEKKEGVQCYALGSEEIISNDLVKKTNSVRLAGEDRFETNKKVIKHFYSSAKEFYLSKGYQLVDAVAGSSIAKNAPIVLVDGNSDKSVLRSADKITALGGIDEKTLEQCLSASSLDASAPTITVGNLNIYQGDKFDISKLNIVAKDSNGNDLTPELIGNINTDKVGKYKVTIKATDIGGKTTSISVEVNVLEYKTNDMNSSEFKRMVSSEMYSLVNSYRKEKGKEPLQVSENLQGMANYWSKYMADKGEFAHVINGKNAAEVFSGGIRSEENIAFVPLTTKSTYTTKDAREVANVIFTVWKKSDKYNENMLSSKFAYTGFGLYILPDGQVYATQEFLNK”, the “soluble on expression in E. coli” value is listed as “not soluble”. With “PIGKSADNMYSYLALVQDDPTVQVVNMAQKAYVEHYIQGDPDLAKLPVLSAAAPFKVGGRKNDPASFVEVEKGQLTFRNAADLYLYPNTLVVMKVSGKEVKEWLECSAGQFNQIDPASSKPQSLINWDGFRTYNFDVIDGVNYQIDVTQPARYDGECQMIHPQAERIKHLTFNGKPVDPQATFLVATNNYRAYGGKFAGTGESHIAFASPDENRSVLAAWIGAQSKKEGAIHPAADNNWRLAPI” the entry was “not soluble”; with “MSLKITNVQTQKVLVPLKKPLITAIHKTDSVGVVIVKIETDTGLVGENYVFALNKDRLDVFDAMIKSLTQFLIGNNPVYVEKIWQQMWQDCNPVGQKGIAISAISAIDTALWDLIGKQANMPLYQVFGACRDKVKTYASSGLWLSSNIDELIEEAHGFIDQGFRSMKLRLGKPDLKEDVERARALRASVGDDIEILTDANQSLTPRQAIALGRQLEDLNIAWLEEPVPAHDLAGHNRVLEAINIPVASGETDYTRFGMKDMLDHKAVDILMPDLQRIGGLSEFRKAAALASAYHIPVSSHIFTEQSLSIAGSADNCISVEHVDWFAPLYQEKIVINDGFIDMPMGAGIGFNFDYDFIDQNLIEGHHHHHH”, “soluble”. To “MPSISPASDADRALVIGSGLGGLAAAMRLGAKGWRVTVIDKLDVPGGRGSSITQEGHRFDLGPTIVTVPQSLRDLWKTCGRDFDADVELKPIDPFYEVRWPDGSHFTVRQSTEAMKAEVARLSPGDVAGYEKFLKDSEKRYWFGYEDLGRRSMHKLWDLIKVLPTFGMMRADRSVYQHAALRVKDERLRMALSFHPLFIGGDPFNVTSMYILVSQLEKEFGVHYAIGGVAAIAAAMAKVIEGQGGSFRMNTEVDEILVEKGTATGVRLASGEVLRAGLVVSNADAGHTYMRLLRNHPRRRWTDAHVKSRRWSMGLFVWYFGTKGTKGMWPDVGHHTIVNAPRYKGLVEDIFLKGKLAKDMSLYIHRPSITDPTVAPEGDDTFYALSPVPHLKQAQPVDWQAVAEPYRESVLEVLEQSMPGIGERIGPSLVFTPETFRDRYLSPWGAGFSIEPRILQSAWFRPHNISEEVANLFLVGAGTHPGAGVPGVIGSAEVMAKLAPDAPRARREAEPAERLAAELEHHHHHH” belongs “not soluble”; to “MDITITLDRSEQADYIYQQIYQKLKKEILSRNLLPHSKVPSKRELAENLKVSVNSVNSAYQQLLAEGYLYAIERKGFFVEELDMFSAEEHPPFALPDDLKEIHIDQSDWISFSHMSSDTDHFPIKSWFRCEQKAASRSYRTLGDMSHPQGIYEVRAAITRLISLTRGVKCRPEQMIIGAGTQVLMQLLTELLPKEAVYAMEEPGYRRMYQLLKNAGKQVKTIMLDEKGMSIAEITRQQPDVLVTTPSHQFPSGTIMPVSRRIQLLNWAAEEPRRYIIEDDYDSEFTYDVDSIPALQSLDRFQNVIYMGTFSKSLLPGLRISYMVLPPELLRAYKQRGYDLQTCSSLTQLTLQEFIESGEYQKHIKKMKQHYKEKRERLITALEAEFSGEVTVKGANAGLHFVTEFDTRRTEQDILSHAAGLQLEIFGMSRFNLKENKRQTGRPALIIGFARLKEEDIQEGVQRLFKAVYGHKKIPVTGD”, “not soluble”. “MTEEFEIAGISTGAWWSSPTNTAAVFSGYSLPCSTEISPDVTNFGWQNFDNKINDHNDGCMNMHNSFFEGLLIDPNDQLLPDPWSKSTIPNAKSELLENFPFLDNMFLVDSEAESLLDHEIRNHKSSKEQITQDYKNLTSKAQLEENSDEYSPRLLKRPRLETLSPLPSFKVRKEKLGDRITALQQLVSPFGKTDTASVLNEAVEYIKFLQEQVTVLSNPEQNTIGSVQQQQCSNKKSINTQGEVEEDECSPRRYVDLSSRGLCLMPISASYPVAAAAASAAEMNVHLVSGIFHSL”: the “soluble on expression in E. coli” value was “soluble”.

In the case of “MISKDEILEIFDKYNKDEITIATLGSHTSLHILKGAKLEGFSTVCITMKGRDVPYKRFKVADKFIYVDNFSDIKNEEIQEKLRELNSIVVPHGSFIAYCGLDNVENSFLVPMFGNRRILRWESERSLEGKLLREAGLRVPKKYESPEDIDGTVIVKFPGARGGRGYFIASSTEEFYKKAEDLKKRGILTDEDIANAHIEEYVVGTNFCIHYFYSPLKDEVELLGMDKRYESNIDGLVRIPAKDQLEMNINPSYVITGNIPVVIRESLLPQVFEMGDKLVAKAKELVPPGMIGPFCLQSLCNENLELVVFEMSARVDGGTNSFMNGGPYSFLYNGEPLSMGQRIAREIKMALQLDMIDKIIS”, the “soluble on expression in E. coli” value was “soluble”. To “MGSDKIHHHHHHMAHEAQKAIARNSLLIRSLPEQHVDALLSQAVWRSYDRGETLFLQEEKAQAIHVVIDGWVKLFRMTPTGSEAVVSVFTRGESFGEAVALRNTPYPVSAEAVTPCEVMHIPSPVFVSLMRRDPEICISILATTFGHLHSLVAQLEQLKAQTGAQRVAEFLLELCDCDTGACEVTLPYDKMLIAGRLGMKPESLSRAFSRLKAAGVTVKRNHAEIEDIALLRDYAESDPADSWSKS” belongs “not soluble”; to “MASANNQNKFLDPRERGNILNYLKVCLLLARAVRRMHAAGLCHSDLSYKNVLIDPEQGHACIIDVDGLVVPGKFPPDVVGTPDFIAPEVVKTSHLLKEDPQRILPNITTDRHALSVLIYMYLFYRHPLRGGKIHDMDDEVRDESLAMGERALFIEHPTDRSNAVKLNQVKPSSLPWADPQKVPYTIMGPYLTQLFEKAFIDGLHDPSKRPTADEWETALVKTVDLIQPCQNTACEQKWYVFSGKTKPVCPYCLEHHHHHH”, “soluble”; to “MGSDKIHHHHHHDLTEEIHSSVIAENYYNNAGEVMAAMMRPWGHFCGTMQVAQSPWSCNELSSDCAAWPQKGRHGYDNGDWIRLHRHQWIPTDGQVVDAWKKLFEGIGYANNFLTDTENIDFEALQVPMSKAQAQAEMRVYRAYCYWYVMDMFGTAPICEKIGEINPSSKSRAELFAWIEKELNESIPSLSESKTETYGRVSKWGAYALLARLYLNAEIYTGQARWDDCIAACDELAKGGFALDKKWNDTFRADNDKRSTEIIWSIVYDEVYAKGMGWYQRWLHYAHQTGWDLQSGPWNGLVTQPTFYDSFADNDLRKIEGFLIGKQYPRKVDENGNYYYDTTAEPLKGSEEYNGQDLVFVNYIKSMTEGEENSGARSIKYEIQPGTTGDMNNDWVMFRYSEVIYNKAEALMRKNGGKATQEVVDMINSVRQRSFKAEDWEKAKYTTATLTMDEFLAEKGREFAFEGIRRTDLVRFNKFVTTSWWDKTASNEPKRNIFPIPQRQLDANANLSPNEANSLF”, “not soluble”. To “MGSSHHHHHHSSGLVPRGSHMASKRCRQCSGDSASSSTSSLSPSELPPSKKAAGGQRVTAEVEVAPITTDATSATVTAAGGAKKKATTGSPARRTSSAAKITNGDAGELIRTAEALAALNAKKSEKEIWSDVVPFVRRTTDSDFDPSRMYKFITWNVAGLRGLLKKNASALRAFMEAEKPDVLCLQETKLNVDEADANATLGVVDGYSFVDHPCAFKRGYSGTRTYMKNSTTVKGLHARCTRGFALPSEPQADAAAGSRVLVEGAGDEEGRVLTTFLSPDPDSASSSSRIALVNTYVANSGMGLTRLPYRVQSFDPSMREYLHRLDTWATENAAVPSAAAMGSGSSPHGFIWAGDLNVAERDYDRYYAGTFKSMQECSGFAPEERMSFRETMQRTNSVDIFRQLYPQAGPVYSFWSQRINGRPRNLGWRLDYFVVSSRLASYVVDCFPMPTVMGSDHCPFQMWMRHP” belongs “soluble”.

With “EQISISSPRKRIYHNILETIGGTPLVELHGVTEHPRIKKGTRILVKLEYFNPMSSVKDRVGFNIVYQAIKDGRLKPGMEIIESTSGNTGIALCQAGAVFGYRVNIAMPSTMSVERQMIMKAFGAELILTEGKKGMPGAIEEVNKMIKENPGKYFVANQFGNPDNTAAHHYTANEIWEDTDGEVDIVVSAVGTSGTVIGVAEKLKEKKKGIKIIAVEPEESAVLEGKAKGPHGIQGIGAGFIPDIYKKEFVDEIIPIKTQDAWKMARAVVKYDGIMCGMSSGAAILAGLKEAEKPENEGKTIVIIVPSCGERYLSTDLYKIKDEGTKIQILDSLLNEHH”, the “soluble on expression in E. coli” value is “soluble”.

As to “ELHAELVKRQHLETFLKTQIESELVDVYFQPIIETRTGNVVKFEALARFYHENSEYSTQEMISIIEDLELIAALDDVVCQTALKQWSHLQKIYGENIGLSINRSLNTKLDSLQVLQRSLDLIKASDVNPKLVTIELTETAYFEQDEEHAFALEQIRQEGIQIAIDDFGTGYSSFSYLEEGQFDVLKIDRKFVKNIHEGSTSYNIVKTITDLAHKLNVEVVAEGVESQRELEVLAGIGVDYMQGFLFSQA”, the “soluble on expression in E. coli” value is given as “not soluble”. To “QDWLTFQKKHITNTRDVDCDNIMSTNLFHCKDKNTFIYSRPEPVKAICKGIIASKNVLTTSEFYLSDCNVTSRPCKYKLKKSTNKFCVNCANQAPVHFVGVGSC” belongs “soluble”; to “MAEKFDCHYCRDPLQGKKYVQKDGHHCCLKCFDKFCANTCVECRKPIGADSKEVHYKNRFWHDTCFRCAKCLHPLANETFVAKDNKILCNKCTTREDSPKCKGCFKAIVAGDQNVEYKGTVWHKDCFTCSNCKQVIGTGSFFPKGEDFYCVTCHETKFAEHCVKCNKAITSGGITYQDQPWHADCFVCVTCSKKLAGQRFTAVEDQYYCVDCYKNFVAKKCAGCKNPITGFGKGSSVVAYEGQSWHDYCFHCKKCSVNLANKRFVFHQEQVYCPDCAKKL”, “soluble”. With “MGSDKIHHHHHHVSTQFQGVIPPVITPRHADGSIDTSSLKNVTRHLIDGGVSGLFVLGSSGEVPYMTNAERELVVSTIADANASVGARAVPLIVGANEQTTNRVIEEAKKVIGLGADAIVVTSMYYAIGNAAETETHFRSIHAAVDKPIFAYDVPVRTHFKLPTDLLVRLGRDGVIAGVKDSSGDDVSFRQLLLEAKDIPDFDIFTGHEVVVDGALLGGAQGVVPGLGNVDPAGYRRLFDAAQAGDWATAAREQDRLADLFEIVYAPNGRVSGGAAGLGAFKTALQLMGVIESNTMSQPMLSLNDDEAAAIRTILERNGLV” the entry was “not soluble”.
